Experimental data: the supplement of paper PMC10567573

B1: CDC14A (parent)
chain: LNLAMVYRYCCKLNKKLKSYSLSR

Variants of: B1
Assay: protein stability index of a GFP-peptide fusion (GPS, HEK-293T) (PSI 1-6); higher = more stable
Settings: c terminus: a fixed tail appended
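Also: lentivirally expressed fusions sorted by FACS into six bins by GFP to DsRed ratio, PSI derived from sequencing read proportions per bin multiplied by bin number.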

Variant	protein stability index
LNLAMVYRYCCKLNKKLKSYSLSL [R24L]	3.97
LNLAMVCRYCCKLNKKLKSYSLSR [Y7C]	2.73
LNLAMVYRYCCKLNKKLKSYSLSS [R24S]	2.19
LNLAMVYRYCCKLNKKLKSYSASR [L22A]	4.08
LNLACVYRYCCKLNKKLKSYSLSR [M5C]	4.65
LNLAMVYRYCCKLNKKLKSYALSR [S21A]	3.27
LNLAMVYRYCCKLNKKLKSYSLSF [R24F]	2.97
LNLAMVYRYCCKLNKKLKSYSLCR [S23C]	2.49
LNLAMVYRYCCKLNKKLKSDSLSR [Y20D]	3.34
LNLAMVYRYCCKLNFKLKSYSLSR [K15F]	2.81
LNLAMVIRYCCKLNKKLKSYSLSR [Y7I]	3.1
LNLHMVYRYCCKLNKKLKSYSLSR [A4H]	3.55
LNLAMVYRYCCKLNKKLYSYSLSR [K18Y]	2.67
LNLAMVYRYLCKLNKKLKSYSLSR [C10L]	2.67
LLLAMVYRYCCKLNKKLKSYSLSR [N2L]	2.17
LNLAMVYRYHCKLNKKLKSYSLSR [C10H]	3.62
LNNAMVYRYCCKLNKKLKSYSLSR [L3N]	1.89
LNLAMVYRYCCKRNKKLKSYSLSR [L13R]	3.08
LNLAMVYRYNCKLNKKLKSYSLSR [C10N]	1.95
LNLAMVYRYCCKLNEKLKSYSLSR [K15E]	3.47
LNLAMVYRYCHKLNKKLKSYSLSR [C11H]	3.15
LNLAMVYRYCCKLNKKDKSYSLSR [L17D]	2.14
LNLAMVYRYCCKLNKKLKSYSLTR [S23T]	3.09
LNLAMVYRYCCKLNKKLPSYSLSR [K18P]	2.5

Variant	protein stability index
LNLAMVYRYCCKLNVKLKSYSLSR [K15V]	3.04
LNLAMVYRYCCKLNIKLKSYSLSR [K15I]	3.62
LNLTMVYRYCCKLNKKLKSYSLSR [A4T]	2.15
LNLAMVYRYCCALNKKLKSYSLSR [K12A]	2.1
LNLAMVYRYCCKLNKKLKCYSLSR [S19C]	2.98
LNLAMVYRYCSKLNKKLKSYSLSR [C11S]	3.77
LNLAMVYRYCCKLNKKLKSYSLSN [R24N]	3.15
LNLAMVYRYCCKLNKKLKKYSLSR [S19K]	2.19
LNLAMVYRYCCKFNKKLKSYSLSR [L13F]	3.31
LNLAMVYRYCCKLAKKLKSYSLSR [N14A]	3.35
LNLAMVYRYCCKLNKLLKSYSLSR [K16L]	2.13
LNLAMVYRYCCKLNKKLKSVSLSR [Y20V]	2.52
LNFAMVYRYCCKLNKKLKSYSLSR [L3F]	3.38
LNLAMRYRYCCKLNKKLKSYSLSR [V6R]	2.78
LNLAFVYRYCCKLNKKLKSYSLSR [M5F]	2.8
LWLAMVYRYCCKLNKKLKSYSLSR [N2W]	3.17
LNLAMVYRYCCKLNKKLKMYSLSR [S19M]	3.69
LNLAMVYRYCCKLQKKLKSYSLSR [N14Q]	4.32
LNLAMVYRYCCKHNKKLKSYSLSR [L13H]	2
LNLAMVYRYCCKLNKILKSYSLSR [K16I]	1.62
LNLAMVYRYCCKLNKWLKSYSLSR [K16W]	2.81
LNLAMVYRYCCKLNKKLKSYSFSR [L22F]	3.36
LNLAMVYRYCCKLNKKLKSSSLSR [Y20S]	2.63
LNKAMVYRYCCKLNKKLKSYSLSR [L3K]	3.48

Variant	protein stability index
LNLAMVYRYCCGLNKKLKSYSLSR [K12G]	1.89
LNLAWVYRYCCKLNKKLKSYSLSR [M5W]	3.48
LNLAMVYRYCCKLNKKLSSYSLSR [K18S]	2.9
LNLAMVYRYCCLLNKKLKSYSLSR [K12L]	2.5
LNLAMVYRYCCKLNKYLKSYSLSR [K16Y]	2.72
LNLAMVYRYCCKLNKKLISYSLSR [K18I]	2.79
LNLAMVYRGCCKLNKKLKSYSLSR [Y9G]	3.25
LNLAMVYRYCCKLNKCLKSYSLSR [K16C]	4.54
LNLAMVYRYCCKLNKKLKSNSLSR [Y20N]	2.16
LNLAMVYRYCCKLNMKLKSYSLSR [K15M]	1.07
LNLAMVYRNCCKLNKKLKSYSLSR [Y9N]	2.03
LNLAMVYRYICKLNKKLKSYSLSR [C10I]	4.27
LNLAMVYRYCCKLNKKLKSYSLSV [R24V]	3.52
LNLAMVYRYCCKLNKKKKSYSLSR [L17K]	2.24
LNLAMVYRPCCKLNKKLKSYSLSR [Y9P]	1.41
LNLAMVYCYCCKLNKKLKSYSLSR [R8C]	3.52
LNLAMVYRYGCKLNKKLKSYSLSR [C10G]	2.71
LNLAMVYRYCRKLNKKLKSYSLSR [C11R]	2.64
LNLAMVYRYCCKLNYKLKSYSLSR [K15Y]	3.3
LNLAMVYTYCCKLNKKLKSYSLSR [R8T]	2.03
LNLAMVLRYCCKLNKKLKSYSLSR [Y7L]	3.34
LNLAMVYRYCCKLNKGLKSYSLSR [K16G]	3.28
LNLAMVYRYCAKLNKKLKSYSLSR [C11A]	2.73
LNLAMVYRYCCKVNKKLKSYSLSR [L13V]	4.56

Variant	protein stability index
LNLAMVYRYCCKLNPKLKSYSLSR [K15P]	2.32
LNLAMVYRYCCKLNKKLKSYSLGR [S23G]	2.2
LNLAMVYRYCCKLNKKLKSYSLSM [R24M]	2.37
LNLGMVYRYCCKLNKKLKSYSLSR [A4G]	3.33
LNLALVYRYCCKLNKKLKSYSLSR [M5L]	2.57
LNLAMVHRYCCKLNKKLKSYSLSR [Y7H]	2.68
LNLAMVYRYCCKLNKKLGSYSLSR [K18G]	3.2
LNLAMVYEYCCKLNKKLKSYSLSR [R8E]	2.43
LNLAMVYRYCCKLNKKCKSYSLSR [L17C]	4.4
LNLAMVYRYCCKLNKKLKSYSKSR [L22K]	2.39
LMLAMVYRYCCKLNKKLKSYSLSR [N2M]	3.27
LNLAMCYRYCCKLNKKLKSYSLSR [V6C]	3.05
LNLIMVYRYCCKLNKKLKSYSLSR [A4I]	2.37
LNLAMVYRYCCKLNKQLKSYSLSR [K16Q]	2.35
LNLAEVYRYCCKLNKKLKSYSLSR [M5E]	3
LNLAMIYRYCCKLNKKLKSYSLSR [V6I]	3.28
LNLAMVYRYCCKLNKKLKSYSLAR [S23A]	3.5
ENLAMVYRYCCKLNKKLKSYSLSR [L1E]	3.44
LNLAMVYRYCCKLNKKLKSYSLLR [S23L]	2.37
TNLAMVYRYCCKLNKKLKSYSLSR [L1T]	2.3
LNLAMVYRYCCKLNKDLKSYSLSR [K16D]	2.56
LNLAMVYRYCKKLNKKLKSYSLSR [C11K]	3
